Drawing on a protein production outcome set (Wang et al. 2014), this text covers protein production for 21 sequences.
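Further: failed if final PepcDB status was selected cloned or expressed and not failed if soluble or beyond.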

This data set can be described thus: label from the status in PepcDB records.
Turning to “MALNLKQRLEQKFEEEIRFFKGMVSQPKKVGAIVPTSSITAKKMASVINPHSGLPVLELGPGTGVITKAILARGIKPESLTAIEYSTDFYNQLLRSYPGVNFVNGDAFDLDATLGEHKGQMFDSVISAVPMLNFPMAARIKLLDELLKRVPHGRPVVQISYGPISPIVAQPHLYHIRHFDFIVRNIPPAQLWTYTRALEHHHHHH”, the protein production result is “failed”.

As for “MSDAETLSVYAAKADDYANLTDEAAARDPSLVAFIAAMPKRGRVLDLGCGPGGSAAAMARAGLVVDAFDPVPEMVALAGRHAGVSARKAGFEDVTQVDHYDGIWANFSLLHAPRDDMPKHLARIATALKPGGRFHIGVKTGTGSKRDTLGRRYTYYSESELVDLLAAAGLTVFDRREGCDTGLDGVDAHWIVLAAHA”, the protein production result was “failed”.

With “MDVRQRLISSMVISLGLTIISEGIVLIGIASLLHISLFFIFPALVIFWLFQWIISPYVVGRGGYEVSPNDPQYGWLYNLVRRIAEESKIKPPRVFVIDAPYPNAFAYGNRLGGMRVGITLPLLNILDVDELTAVIAHEVGHIKHRDVEIGMTIGLIPTVLGYISTLLMNFGYLALFLAADEIELLFAIAALAIGFVIFVVTFILQIFVLWFNRLRESYADYNSFLVLGEGSKALATALAKIEIYMQNIRIDPFTGIIVTAPPVKVEEKDPHLLVEQWLRTKVSAFKDILSTHPYPARRAQMIYRLIYGSNI”, the protein production result was “failed”.

With “MEYTPFSLILDVGWISGLMIIGNIMRRKIPFFQTLLIPSSITAGIIGMILGPKVLGLIGWSDHLSTYTTVLIAIVFASMPYSMKFDRGVRTGMKTMWAYSTAMFVGQWGLFILLGLFLFQPVWGTDEWFGMMLPVGFVGGFGTAAAVGTALESSGAEAAMSLGFTSATVGTFAAIVGGIIFTTWGIKKGKTAAMPAQLPWDLRSGYIDKLSDRPSIGKASTNPSAIEPLALHTGIILLTVAVAYSINQWLGSMFPTVQIPLFAMSFVVGIVGMGIMRLLKKPEYLDRDTVNSVSGAATDYLIAFGIASIAPAAIADYWVPLVVLFVLGTIYCCFFFFWVAPRFFGEKWLERAIFGWGWATAAVATGIALLKIVDPKLKSGALNEYGVAYIGFAPFEIGMTIIAPIAVLAGFTMGLGWASLIVAIVIFGLAWGLKWLPERGHVRGEGKPQ”, the protein production entry is reported as “failed”.

Turning to “MGHHHHHHSHPQLLHFVDQYREQLIARVTSVEVVLDKLHGQVLSQEQYERVLAENTRPSQMRKLFSLSQSWDRKCKDGLYQALKETHPHLIMELWEKGSKKGLLPLSS”, the protein production entry is “not failed”.

Turning to “MKSYMTQRLDEYRDGNEDKGRLLVSCPDQPGIVSAVSAFLFEHGANIIESNQYTTDPEGGRFFLRIEFDCAGIREKKSSLQAAFASVAEKFDMTWSLTLASELKRVAIFVSKNLHCLHELIWEWQTGNLMAEIAVVISNHEEARELVERLNIPFHYMKANKDIRAEVEKKQLELLEQYDVDVIVLARYMQILTPDFVSAHPNRIINIHHSFLPAFIGANPYKRAYERGVKLIGATSHYVTNDLDEGPIIEQDIKRVDHRDNAETLKNIGRTIERSVLARAVKWHLEDRVIVHENK”, the protein production entry is given as “not failed”.

As for “EDPGDAQVVFARLDAYIRRHLQSEIEVAALAEQAHMSTRSLYALFERQLGESPRQYIRRLRLERIRACLEDPGCRVRNLTELALDFGFAHLGRFAEQYRRQFGELPSETLRRRA”, the protein production entry is on record as “failed”.

As to “EKEKDTIAAEHKQEASVLLNLHRNKINYLIGETMARMTSLSIAIDRPVDIKKMQSILEKTFDSEPRFSGLYFLNAKGDVTASTTELKTKVNLADRSFFIKAKETKKTVISDSYSSRITGQPIFTICVPVLDSKRNVTDYLVAAIQIDYLKNLINLLSPDVYIEVVNQDGKMIFASGQASHAEDQKPVSGYLDDISWNMKVYPNPVTIEELSKSL”, the protein production result is recorded as “not failed”.

As to “MAQATSPIELALTTGRGHQAEVRLAKPDGSYLPVIASCNPLNRSDGGIVLTLNDISELRSAERAVSDRAEELATLNRELKETSQATTRLVKLGELLQACVTFHEAFSVVGSAMPDFFGGLSGTVHLTSASRNLVEEMAHWGAVRSSVGQFAPEDCWALRRGQEHVAGPGMLTPRCNHITENGGRGYVCMPLAAQGETLGIVHLCEPDAADRPDWLTERQQILRGVVDTLALALANLRLRETLRQQSIRDPNTGLYNRRYLEETSSRELRRMERSGQPLAMIMLDVDHFKQFNDTFGHEAGDLVLKQVAATLLDHARESDVVSRYGGEEFALMMPGTSLADAAERAEALRKAIKQLHLTHRGRTLGTITASFGVSAFPELGASWVEIVNAADRSLYQAKADGRDRVVAGLGRADPQWDLSTASQSVA”, the protein production result is recorded as “failed”.

In the case of “MTLTRDSLLTLEAYAKVRRQEHARVIAHKKRRAVSIGNHLRLLFEDETTIRYQIHEMLHIEKIFDEDGIQAELDAYLPLVPDGSNLKATLQIEYENETQRRAALARLVGIEDRVFLRVDDEAPVYAIADEDLERDTAEKTSAVHFLRFELGDAMKAKLKAGAPLSIGCDHPHYPIQAARIDPDVAASLAGDLD”, the protein production result was “not failed”.

As to “MSEFRPVPTTDREACQRILQYAFAPETGPVPPDPDGDWPPSLFDQRGLYDGGTLRAVCKLYFFDTTVRGAATTVGGLGAVATPPEHRGQGLAADLCRHALSAYRKADVGFVTLWPFSTPFYHRLGWGTANTYRRFDLPPSALPDPSTAGQLVRLDADDWERLRRVETAAAAGTALSLRRSEAWWRERTLADWDDDGVPYCYGYERDGELQGYVVYTVADDANNTLSVSNFAAVDEEARRALFAFLGHHGAQIERVTLQLPPDTDLFHRVDDPGAVDCTVEAGPMVRLTDVDYLERLDWPGGDLDCTLSVNDPLLDHNDGLFRLSVNGGTATVDPLPASDSKADVAVDIATLSQLAVGTHGVDAAERLAGLEMFDDSVRGPLADVFQPESVYLGEFF”, the protein production result was “failed”.

As to “MRRAAGKPRARRNTACHAAGILKKYPSVSALGCTFHDARQTSRCDENDKTNETMSSALLLVPDFSLILIGWLLVRYTPFDRGFWAGVERLVYFVLFPALLLQSTNSAKFDFSSTSAMLGLALLTMVFGMATGYLVKWVLRPAPADFASGLQTAFRFNSYIGLALAARLGNGEGLALMALVVGVTVPLCNVVAVWALAKHGEARVLRELVRNPLILATATGLVTNLLGLHPPEVVAMTLNRLGSASTALGLMTVGAGLQMSGATGTAGPMAWWSGVKLLAMPCFAWLVGKYLPLTPLQYQIVVVYASLPTASSSYILAVRMGGNGPMVAATISAMTVVAIVTTPVWLSLVS”, the protein production entry is “failed”.

With “MTTIHFHNVYVASRGTSVGLLEKQGPLGNRFDYTHEDNTCQQDSFEKAERYMLQEAVDATIRKSDYSIKDIEVMIGGDLINQLTSSHYFAKEFPISFLGMYAACASSSLVIGQAALWVEHQLAKTALAFTSSHVATAERQFRFPNEYGIQKKETTTCTVTGAGAVLLSRKKSKLKVASFTVGKVVDWQYNDANDMGVAMAPAAYDTLTTYFKDTNQSFQDFDLIVTGDLSKLGFAFLRDLLLQNGYCCEEKLQDCGLMIYDIVKQNVFCGGSGCACSMCVSMTKLLDLLEQQEARRIMVLATGALLSPIAIQQKESIPCIAHAIVYERS”, the protein production result is listed as “failed”.

On to “MPSFDIVSEITLHEVRNAVENANRVLSTRYDFRGVEAVIELNEKNETIKITTESDFQLEQLIEILIGSCIKRGIEHSSLDIPAESEHHGKLYSKEIKLKQGIETEMAKKITKLVKDSKIKVQTQIQGEQVRVTGKSRDDLQAVIQLVKSAELGQPFQFNNFRD”, for which the protein production entry was “not failed”.

Regarding “MDDGNENISMEVVEPEDAESDMSSDSGSDAEDDTAEPKAPKEVYLPGTKLADDEELVCDESAYVMLHQASTGAPCLSFDVIPDELGSGRQSFPMTAYIVAGTQASRAHVNNLIVMKMSNLHKTQDNDGDEDEELEDDQDDVTDREELKKPQMTCALVKHQGCVNRVRARRLGNSVYAASWSELGRVNIWDLTQPLQAVENAQLAKQYEQSEARPVFTFGGHQQEGFAIDWSPSADGVLATGDCRRDIHVWTPVEDGTWKVDQRPLAGHSQSVEDLQWSPNERSVLASCSVDKTIRIWDCRASPQKACMLTCEDAHQSDVNVISWNRNEPFIASGGDDGYLHIWDLRQFQSKKPIATFKHHTDHITTVEWSPAEATVLASGGDDDQIALWDLAVEKDIDQAVDPAQNEDVLNKLPPQLLFIHQGQKEIKELHWHPQLPGVLLSTAHSGFNIFRTISV”, the protein production entry is listed as “failed”.

Regarding “MWVRVPPPAPFSIFLSPGDDIVKRRKSTRTSSFGVKGRESHDSSPFYSRAIYSNFSLPKPSEEDLIENPLPENLLDKVIEGDAREVLKKIPDCSIHLMVTSPPYNVGKEYDEDMTLDEYLEFIEEIMKEVYRVLVWGGRACFNVANLGRKPYIPLHAYLIHLFEKIGFLIRGEIIWDKGEAVSGSSTAWGSWMSPVNPVLRDQHEYIIVMSKGDLKRRKPSDREAKSTITREEFLEFTRSVWKFPPESAKRVGHPAPFPEELPYRCIQLYTFKGDVVLDPFAGVGTTCVAAVKTGRHFVGIEINPEYVKKAEERVKDILSKPTLFEDHC”, the protein production result was “failed”.

For the sequence “MAYLAPISSSLSIFKNPQLSRFQFSSSSPNPLFLRPRIQILSMTMNKSPSLVVVAATTAAEKQKKRYPGESKGFVEEMRFVAMRLHTKDQAKEGEKETKSIEERPVAKWEPTVEGYLRFLVDSKLVYDTLELIIQDSNFPTYAEFKNTGLERAEKLSTDLEWFKEQGYEIPEPTAPGKTYSQYLKELAEKDPQAFICHFYNIYFAHSAGGRMIGRKVAERILDNKELEFYKWDGELSQLLQNVREKLNKVAEEWTREEKNHCLEETEKSFKYSGEILRLILS”, the protein production result is listed as “failed”.

Regarding “MFAERRMNVQKKLKIMAARDRNRFRPLFEGDEEVDMLYLNCNVASRPSLSCDGLVCIPIPGWINVLNPSTGEFLRFSSGRDPRLINDFECVDSKFDVFPGFWTMGFGRDNVNGSYKIVRMLFDRHFENRYCQILDVNIGEWRKQRQPPYFVGYREKSACVNGSIYWSQALIRCKLLAFDLYSEEFRDVPTPPRSEICERSCQIVNLEDRLVLAVTYTTSLHWNVKIWSMDAHDGTRSITYSIRLFSKDMNSSIMNHFQLWFWTRPLAVSKRGNLFFHDNEKRL”, the protein production entry was “failed”.

As for “MTSFDWFFVAAYLILSFGIALYFYQRAGEDTSEFFLSGRAMPWWLAGTSMVATTFAVDTPLLVTEIVAQNGIAGNWLWWNAAIGGMLTVFFFARLWRRSGVMTDVEFVEFRYSGRVAAWLRGLKALFFGLLLNILIIGWVSLAMETVIDRLFPDLTLFGQAAFSVLGREMSAALVVTGGLILLVSVYALLSGLWGVMVTDLFQFVVAMGGTIALAVLVLDMPEIGGVAGLREQLPDETFNLLPTIGGAAEGAATFSLSALAFAAYAGVQWWASWYPGAEPGGGGYIAQRMMSAKDEPNALFATLWYTIAHFCLRPWPWIIVALAALVLYPDLDEPRAGFVLVMKDVLPPGLLGLLFASFLAAFMSTVSTQLNWGVSYLVNDFWGRFVRPDADEAHYVRVSRVLTFGVALLSLVVTLFLDTIAEAWGLLLSASAGLGLVLILRWYWWRVNAWSEMAATLAPIGLTVAALVLNVFGVQVPGLQADFPLNLYSVVGFTTVVWLAATFLTRPTDAETLDAFYRTVHPGGPGWTPVAERHPDVTPDSGLGRLALDWLVGVVLVYSTLFGTGYLILGWTLWGAGCIAVALTAAAYLWRDLQRDEISLIEMKEEKDATEER”, the protein production entry is “failed”.

On to “AADQVLELVRPFLEELRNISQETAVLGKRQDGQVIYLDVALSHQPIRYHVQVGESRAAHTNSIGKAIFPMLDEKEQKALLAKANWRALTSRTIATREAFLRDMAQTKARGWSSNVGESVEDLAAVALPFQLASEWYAVSIVGPYERMERNWDAHVETLLQTGARLRQAIAVHEGQ”, for which the protein production result is listed as “failed”.

As to “MKAYQNILVAIDGSGADDALIEQVSALAAPLGSRVHLLHVVHSHTIDQERALREQAGEFLERYRAAMQQQGIEAEVLIRSGEPDREILKEIEERRYDLLAMAAHGHRLFSRLLFGSVSRALRNKIDIPLLLVRGEAR”, the protein production entry was “failed”.
